First the molecules themselves.
B1: glmS ribozyme (parent)
chain: AUAAAAGCGCCAGAACUACAGAAAUGUAGUUGACGAGGAGGAGGUUUAUCGAAUUUUCGGCGGAUGCCUCCAAA

± gives the standard error. For some assays here: Variants at the floor of the assay were thinned out.

Holding throughout (details): with glucosamine-6-phosphate
The variants in series [1] derive from B1. Nature of the series: kcat; higher = faster cleavage; RNA array. The method, boiled down: (§1)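 Sequenced MiSeq chips were the platform: E. coli RNA polymerase transcribed barcoded ribozyme variants on them in situ, and a hybridised Cy3 probe tracked these at 37 °C. After glucosamine-6-phosphate (40 μM to 10 mM) in HEPES/KCl/Mg(OAc)2 buffer was flowed in, tiles were imaged over ~14 h. Signals normalised to baseline and to non-cleaving reference variants were reduced to per-tile medians and fit to one- or two-exponential decays to obtain kobs. kcat and KM were derived through weighted Michaelis–Menten fits across concentrations.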

Series [2] covers variants of B1. Nature of the series: self-cleavage kobs at 40 uM GlcN6P; higher = faster cleavage; RNA array. Summed up: as §1
Variants of B1 are the subject of series [3]. Nature of the series: self-cleavage kobs at 160 uM GlcN6P; higher = faster cleavage; RNA array. The method, boiled down: as §1
In series [4] the parent is B1. Nature of the series: self-cleavage kobs at 10000 uM GlcN6P; higher = faster cleavage; RNA array. Summed up:
as §1

Variants of B1 are the subject of series [5]. Nature of the series: KM; higher = weaker cofactor use; RNA array. Summed up: as §1
The variants in series [6] derive from B1. Nature of the series: self-cleavage kobs at 640 uM GlcN6P; higher = faster cleavage; RNA array. The method, boiled down: as §1
In series [7] the parent is B1. Description: self-cleavage kobs at 2500 uM GlcN6P; higher = faster cleavage; RNA array. The method, boiled down:
as §1

The values below come from the supplement of paper PMC7125110.

For the variant AUAAAAGCGCCAGAACUACAGAAAUGUAGUUGACGAGGAGGAGGUUUGUCGAAUUUUCGGCGGAGGCCUCCAAA, the kcat with glucosamine-6-phosphate [1] was 8.76e-05 ± 3.5e-05 s⁻¹. Moreover, the “self-cleavage kobs at 40 uM GlcN6P” value in the series with glucosamine-6-phosphate [2] is below 1e-05 s⁻¹. In addition, the “self-cleavage kobs at 160 uM GlcN6P” value with glucosamine-6-phosphate [3] was below 1e-05 s⁻¹. For the same variant, the “self-cleavage kobs at 10000 uM GlcN6P” value in the series with glucosamine-6-phosphate [4] is 3.81e-05 ± 1.3e-05 s⁻¹.

For AUAAAAGCGCCAGAACUACAGAAAUGUAGUUGACGAGGUGGAGGUUUAUCGAAUUUUCGGCGGAUGUCUCCAAA, the turnover number (kcat) in the series with glucosamine-6-phosphate [1] stood at 0.0107 ± 0.0018 s⁻¹. Besides, in the series with glucosamine-6-phosphate [5], the KM turned out to be 2220 ± 500 µM. Besides, in the series with glucosamine-6-phosphate [2], the “self-cleavage kobs at 40 uM GlcN6P” value came out at 0.000223 ± 1.9e-05 s⁻¹. Further, the “self-cleavage kobs at 160 uM GlcN6P” value with glucosamine-6-phosphate [3] was 0.000573 ± 8.1e-05 s⁻¹. In the series with glucosamine-6-phosphate [6], the “self-cleavage kobs at 640 uM GlcN6P” value worked out at 0.00228 ± 0.00025 s⁻¹. Also, the “self-cleavage kobs at 2500 uM GlcN6P” value with glucosamine-6-phosphate [7] is 0.00631 ± 0.001 s⁻¹. Besides, the “self-cleavage kobs at 10000 uM GlcN6P” value with glucosamine-6-phosphate [4] is 0.00878 ± 0.00079 s⁻¹.

AUAAAAGCGCCAGAACUACAGAAAUGUAGUUGACGAGGAGGAGGUUUAUCGAAUUUUGGGCGGAUGCCGCCAAA: the kcat with glucosamine-6-phosphate [1] was 4.22e-05 ± 1.4e-05 s⁻¹. Besides, in the series with glucosamine-6-phosphate [3], the “self-cleavage kobs at 160 uM GlcN6P” value was 6.03e-05 ± 1.5e-05 s⁻¹. Further, the “self-cleavage kobs at 640 uM GlcN6P” value with glucosamine-6-phosphate [6] was 5.7e-05 ± 1.7e-05 s⁻¹. Further, the “self-cleavage kobs at 2500 uM GlcN6P” value with glucosamine-6-phosphate [7] is 5.1e-05 ± 1.6e-05 s⁻¹.

With AUAAAAGCGCCAGAACUACAGAAAUGUAGUGGACGAGGAGGAGGUUUACCGAAAUUUCGGCGCAUGCGGCCAAA, in the series with glucosamine-6-phosphate [1], the kcat is 2.53e-05 ± 5.9e-06 s⁻¹. Also, the “self-cleavage kobs at 40 uM GlcN6P” value in the series with glucosamine-6-phosphate [2] was below 1e-05 s⁻¹.

Consider AUAAAAGCGCCAGAACUACAGAAAUGUAGUUGACGAGGAGAAGGUUUAUCGGAUUUUCGGCGGAUGCCUCCAAA, for which the catalytic constant (kcat) with glucosamine-6-phosphate [1] stood at 8.32e-05 ± 1.6e-05 s⁻¹. Also, the “self-cleavage kobs at 2500 uM GlcN6P” value with glucosamine-6-phosphate [7] worked out at 7.3e-05 ± 1.3e-05 s⁻¹. For the same variant, the “self-cleavage kobs at 10000 uM GlcN6P” value in the series with glucosamine-6-phosphate [4] amounted to 6.83e-05 ± 1.3e-05 s⁻¹.

As for AUAAAGGCGCCAGAACUACAGAAAUGUAGUUGACGAGGAGGAGGUGUAUCGAAUUUUCGGCGGAUGCUUCCAAA, the kcat with glucosamine-6-phosphate [1] came to 3.96e-05 ± 1.9e-05 s⁻¹. In addition, the “self-cleavage kobs at 2500 uM GlcN6P” value with glucosamine-6-phosphate [7] turned out to be 4.82e-05 ± 2.3e-05 s⁻¹.

AUAAAAGCGCCAGAACUACAGAAAUGUAGUUGACGAGGAGGAGGUUUAUCGAACUUACGGCGGAUGCCUCCAAA: the turnover number (kcat) with glucosamine-6-phosphate [1] was 0.000407 ± 0.00018 s⁻¹. Further, the “self-cleavage kobs at 640 uM GlcN6P” value with glucosamine-6-phosphate [6] was found to be 7.93e-05 ± 1.9e-05 s⁻¹. Besides, the “self-cleavage kobs at 2500 uM GlcN6P” value with glucosamine-6-phosphate [7] is 0.000112 ± 2.5e-05 s⁻¹. For the same variant, the “self-cleavage kobs at 10000 uM GlcN6P” value with glucosamine-6-phosphate [4] came out at 0.000297 ± 4.3e-05 s⁻¹.

Turning to AUAAAAGCGCGAGAAUUACAGAAAUGUAGUUGACGAGGAGGAGGUUUAUCGAAUUUUCGGCGGAUGCCUCCAAA, the kcat with glucosamine-6-phosphate [1] was below 1e-05 s⁻¹. The “self-cleavage kobs at 160 uM GlcN6P” value in the series with glucosamine-6-phosphate [3] is below 1e-05 s⁻¹.

As for AUAAAAGCGCCAGAACUACAGAAAUGUAGUUGACGAGGAGGAGGUUUAUCGAAUUUUCGGCGGAUGCCCCCAAA, the catalytic constant (kcat) in the series with glucosamine-6-phosphate [1] worked out at 0.00361 ± 0.00043 s⁻¹. Besides, the KM in the series with glucosamine-6-phosphate [5] is 201 ± 40 µM. In the series with glucosamine-6-phosphate [2], the “self-cleavage kobs at 40 uM GlcN6P” value is 0.000631 ± 3.9e-05 s⁻¹. The “self-cleavage kobs at 160 uM GlcN6P” value in the series with glucosamine-6-phosphate [3] amounted to 0.00145 ± 0.00011 s⁻¹. Also, the “self-cleavage kobs at 640 uM GlcN6P” value in the series with glucosamine-6-phosphate [6] was 0.00268 ± 0.0002 s⁻¹. Moreover, the “self-cleavage kobs at 2500 uM GlcN6P” value with glucosamine-6-phosphate [7] was 0.00383 ± 0.00039 s⁻¹.

With AUAAAAGCGCCAGAACUACAGAAAUGUAUUUGACGAGGAGGAGGUUUAUCGAAAUUUCGGCGGAAGCCUCCAAA, the kcat with glucosamine-6-phosphate [1] was 0.000347 ± 8.3e-05 s⁻¹. For the same variant, in the series with glucosamine-6-phosphate [3], the “self-cleavage kobs at 160 uM GlcN6P” value came out at 8.02e-05 ± 2.9e-05 s⁻¹. Also, the “self-cleavage kobs at 640 uM GlcN6P” value with glucosamine-6-phosphate [6] is 0.000149 ± 2.1e-05 s⁻¹. For the same variant, the “self-cleavage kobs at 2500 uM GlcN6P” value in the series with glucosamine-6-phosphate [7] turned out to be 0.000241 ± 3.4e-05 s⁻¹. Moreover, the “self-cleavage kobs at 10000 uM GlcN6P” value with glucosamine-6-phosphate [4] was 0.000456 ± 0.00011 s⁻¹.

On to AUAAAAGCGCAAGAACUACAGAAAUGUAGUUGACGAGGAGGAGGUUUAUUGAAUUUUCGGCGGUUGCCUCCAAA, for which, in the series with glucosamine-6-phosphate [1], the kcat is below 1e-05 s⁻¹.

With AUAAAAGCGCCAGAAAUACAGAAAUGUAGUUGACGAGGAGGAGGUUUUUCGAAUUUUCGGCGGAUGCCUCCAAA, the catalytic constant (kcat) in the series with glucosamine-6-phosphate [1] was below 1e-05 s⁻¹. The KM with glucosamine-6-phosphate [5] was 163 ± 44 µM. The “self-cleavage kobs at 40 uM GlcN6P” value with glucosamine-6-phosphate [2] is below 1e-05 s⁻¹. Moreover, in the series with glucosamine-6-phosphate [3], the “self-cleavage kobs at 160 uM GlcN6P” value is below 1e-05 s⁻¹.

Consider AUAAAAGCGCCAGAACUACAGAAAUGUAGUUGACGAGGAGGAGGUUUAUCGAACUUUCGGCGGGUGCCUCCAAA, for which, in the series with glucosamine-6-phosphate [1], the kcat worked out at 0.016 ± 0.0067 s⁻¹. Moreover, the “self-cleavage kobs at 40 uM GlcN6P” value with glucosamine-6-phosphate [2] was found to be 0.000616 ± 8.4e-05 s⁻¹. In addition, in the series with glucosamine-6-phosphate [3], the “self-cleavage kobs at 160 uM GlcN6P” value amounted to 0.00156 ± 0.00033 s⁻¹. Further, in the series with glucosamine-6-phosphate [6], the “self-cleavage kobs at 640 uM GlcN6P” value was determined as 0.00883 ± 0.0018 s⁻¹. For the same variant, in the series with glucosamine-6-phosphate [7], the “self-cleavage kobs at 2500 uM GlcN6P” value was determined as 0.0287 ± 0.0082 s⁻¹. In the series with glucosamine-6-phosphate [4], the “self-cleavage kobs at 10000 uM GlcN6P” value came to 0.0123 ± 0.0031 s⁻¹.

Consider AUAAAAGCGCCAGAACUACAGAAAUGUAGUUGUCGAGGAGGAGGUUUAUCGAAUUUUCGGCGGAUGACUCCAAA, for which, in the series with glucosamine-6-phosphate [1], the catalytic constant (kcat) was 7.68e-05 ± 3.3e-06 s⁻¹. Further, the Michaelis constant (KM) in the series with glucosamine-6-phosphate [5] worked out at 4870 ± 530 µM. For the same variant, the “self-cleavage kobs at 2500 uM GlcN6P” value in the series with glucosamine-6-phosphate [7] turned out to be 2.58e-05 ± 7.7e-06 s⁻¹. For the same variant, in the series with glucosamine-6-phosphate [4], the “self-cleavage kobs at 10000 uM GlcN6P” value came to 5.17e-05 ± 6e-06 s⁻¹.

Take AUAAAAGCGCCAGAUCUACAGAAAUGUAGUUGACGAGGAGGAGGUUUAUCGAAUUUUCGGCGGAUGACUCCAAA: the kcat with glucosamine-6-phosphate [1] was determined as 0.00148 ± 0.00015 s⁻¹. The KM with glucosamine-6-phosphate [5] stood at 1700 ± 250 µM. In addition, the “self-cleavage kobs at 40 uM GlcN6P” value with glucosamine-6-phosphate [2] was 4.29e-05 ± 1e-05 s⁻¹. For the same variant, the “self-cleavage kobs at 160 uM GlcN6P” value with glucosamine-6-phosphate [3] stood at 0.000119 ± 1.6e-05 s⁻¹. In the series with glucosamine-6-phosphate [6], the “self-cleavage kobs at 640 uM GlcN6P” value came to 0.000447 ± 9.2e-05 s⁻¹. In addition, the “self-cleavage kobs at 2500 uM GlcN6P” value with glucosamine-6-phosphate [7] was 0.000861 ± 0.00014 s⁻¹. Also, the “self-cleavage kobs at 10000 uM GlcN6P” value with glucosamine-6-phosphate [4] came to 0.00127 ± 0.00019 s⁻¹.

As to AUAAAAGCGCGAGAACUACAGAAAUGUAGUUGACGAGGAGGAGGUUUAUCAAAUUUUCGGCGGAUGCCUCCAAA, the kcat with glucosamine-6-phosphate [1] is below 1e-05 s⁻¹. Also, the Michaelis constant (KM) in the series with glucosamine-6-phosphate [5] was found to be 30.6 ± 15 µM. For the same variant, in the series with glucosamine-6-phosphate [2], the “self-cleavage kobs at 40 uM GlcN6P” value was below 1e-05 s⁻¹. In addition, the “self-cleavage kobs at 10000 uM GlcN6P” value with glucosamine-6-phosphate [4] was below 1e-05 s⁻¹.

As for AUAAAAGCGCCAGAACUACAGAAAUGUAGUUGACGAGGAGGAGGUUUAUGGAAUUAUCGGCGGAUGCCUCCAAA, the catalytic constant (kcat) in the series with glucosamine-6-phosphate [1] was found to be 3e-05 ± 4.9e-06 s⁻¹. Moreover, the “self-cleavage kobs at 2500 uM GlcN6P” value with glucosamine-6-phosphate [7] turned out to be 4.14e-05 ± 1.9e-05 s⁻¹.

With AUAAAAGCGCCAGUACUACAGAAAUGUAGUUGACGAGGAGGAGGUUUAUCGAAUUUUCGGCGGAUGCCUCGAAA, in the series with glucosamine-6-phosphate [1], the kcat was 0.000432 ± 8.9e-05 s⁻¹. Also, in the series with glucosamine-6-phosphate [5], the Michaelis-Menten constant (KM) amounted to 1620 ± 630 µM. In addition, the “self-cleavage kobs at 40 uM GlcN6P” value in the series with glucosamine-6-phosphate [2] came out at 2.7e-05 ± 9.2e-06 s⁻¹. Besides, the “self-cleavage kobs at 160 uM GlcN6P” value with glucosamine-6-phosphate [3] worked out at 5.71e-05 ± 1.1e-05 s⁻¹. Besides, the “self-cleavage kobs at 640 uM GlcN6P” value with glucosamine-6-phosphate [6] came to 0.000111 ± 1.3e-05 s⁻¹. Further, the “self-cleavage kobs at 2500 uM GlcN6P” value in the series with glucosamine-6-phosphate [7] was determined as 0.000237 ± 3.2e-05 s⁻¹. In addition, the “self-cleavage kobs at 10000 uM GlcN6P” value with glucosamine-6-phosphate [4] came to 0.000402 ± 4.2e-05 s⁻¹.

A word on the kcat: it is the maximal rate divided by the concentration of active sites. Usually KM stands for the concentration of substrate that gives half-maximal velocity.
